B1: Prickle-like protein 1 (Mus musculus), Q3U5C7 (parent)
chain: MPLEMEPKMSKLVFGCQRSSTSDDDSGCALEEYAWVPPGLRPEQIQLYFACLPEEKVPYVNSPGEKHRIKQLLYQLPPHDNEVRYCQSLSEEEKKELQVFSAQRKKEALGRGTIKLLSRAVMHAVCEQCGLQMNGGEVAVFASRAGPGVCWHPSCFVCFTCNELLVDLIYFYQDGKIHCGRHHAELLKPRCSACDEIIFADECTEAEGRHWHMKHFCCLECETVLGGQRYIMKDGRPFCCGCFESLYAEYCETCGEHIGVDHAQMTYDGQHWHATEACFSCAQCKASLLGCPFLPKQGQIYCSKTCSLGEDIHASDSSDSAFQSARSRDSRRSVRMGRSSRSADQCRQSLLLSPALNYKFPGLSGNADDTLSRKLDDVSLASRQGAGFANEEFWKARVEQEASEDPEEWAEHEDYMTQLLLKFGDKNLFQQQSSEVDPRASEHWIPDNMVTNKPEVKPNHQGLASKKYQSDMYWAQSQDGLGDSAYGSHPGPASSRRLQELDLDHGAAGYTHDQSQWYEDSLECLSDLKPEQSIRDSMDSLALSNITGASVDGESKPRPSLYSLQNFEEIEAEDCEKMSNMGTLNSSMLHRSAESLQSLNSGLCPEKILPEEKPAHLPVLRRSKSQSRPQQVKFSDDVIDNGSYDIEIRQPPMSERTRRRAYHFEERGSRPHHHRHRRSRKSRSDNALNLVTERKYSAKDRLRLYTPDNYEKFIQNKSARELQAYMQNANLYSQYAHATSDYALQNPGMNRFLGLCGEDDDSWCSSSTSSSDSEEEGYFLGQPIPQPRPQRFTYYTDDLSSPASALPTPQFTQRTTKSKKKKGHKGKNCIIS
partner: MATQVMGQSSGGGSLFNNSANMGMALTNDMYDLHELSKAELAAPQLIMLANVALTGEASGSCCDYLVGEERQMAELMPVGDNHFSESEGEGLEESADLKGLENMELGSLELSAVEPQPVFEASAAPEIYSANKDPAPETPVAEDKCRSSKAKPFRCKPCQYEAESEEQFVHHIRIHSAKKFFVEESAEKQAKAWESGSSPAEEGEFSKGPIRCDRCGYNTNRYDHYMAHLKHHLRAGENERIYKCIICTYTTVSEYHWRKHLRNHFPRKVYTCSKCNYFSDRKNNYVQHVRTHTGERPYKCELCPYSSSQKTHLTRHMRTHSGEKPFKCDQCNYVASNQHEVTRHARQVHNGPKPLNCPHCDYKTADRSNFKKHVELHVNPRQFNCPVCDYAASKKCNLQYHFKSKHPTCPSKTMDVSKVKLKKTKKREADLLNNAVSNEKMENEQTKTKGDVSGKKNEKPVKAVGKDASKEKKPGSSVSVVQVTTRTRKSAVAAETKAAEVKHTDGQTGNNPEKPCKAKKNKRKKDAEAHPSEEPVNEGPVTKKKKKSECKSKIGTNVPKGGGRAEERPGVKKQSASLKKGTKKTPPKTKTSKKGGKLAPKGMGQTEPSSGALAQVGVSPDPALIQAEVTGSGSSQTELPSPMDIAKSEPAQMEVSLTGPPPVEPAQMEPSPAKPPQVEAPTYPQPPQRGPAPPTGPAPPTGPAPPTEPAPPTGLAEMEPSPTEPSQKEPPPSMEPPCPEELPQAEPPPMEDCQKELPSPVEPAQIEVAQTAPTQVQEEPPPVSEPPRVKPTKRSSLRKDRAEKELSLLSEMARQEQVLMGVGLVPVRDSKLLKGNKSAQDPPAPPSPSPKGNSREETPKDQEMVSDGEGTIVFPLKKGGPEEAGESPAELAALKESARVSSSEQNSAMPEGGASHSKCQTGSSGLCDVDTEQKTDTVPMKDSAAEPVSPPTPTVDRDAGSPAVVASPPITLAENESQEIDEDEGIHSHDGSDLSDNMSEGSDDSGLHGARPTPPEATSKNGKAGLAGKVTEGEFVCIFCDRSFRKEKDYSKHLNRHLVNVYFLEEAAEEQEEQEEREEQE

Variants of: B1
Settings: with rest_mouse Rest

Variant | effect of a mutation on the interaction
R104Q | decreasing interaction
